{"source": "paper PMC2873509", "about": "“The RNA binding protein HuR does not interact directly with HIV-1 reverse transcriptase and does not affect reverse transcription in vitro”", "key": {"NusA-HuR [1]": {"target": "T1, NusA-HuR (UniProt Q15717 1-326)", "T1 sequence (Q15717 whole entry, the tested form may be a part)": "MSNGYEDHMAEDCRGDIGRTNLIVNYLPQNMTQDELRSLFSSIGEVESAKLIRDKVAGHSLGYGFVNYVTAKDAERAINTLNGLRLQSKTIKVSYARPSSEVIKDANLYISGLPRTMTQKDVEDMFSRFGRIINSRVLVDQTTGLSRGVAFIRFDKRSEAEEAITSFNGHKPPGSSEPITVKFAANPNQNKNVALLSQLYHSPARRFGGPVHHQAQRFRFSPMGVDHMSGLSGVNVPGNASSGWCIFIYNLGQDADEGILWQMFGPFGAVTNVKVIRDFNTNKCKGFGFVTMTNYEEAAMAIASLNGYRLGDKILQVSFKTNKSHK", "assay": "EMSA; 0-3 uM HuR, 100 nM RNA; EMSA: 50 mM Tris pH 7.5, 50 mM KCl, 37 C, 1 h, 100 nM 32P-RNA; 7% native PAGE in 40 mM Tris-acetate pH 8.0, 1 mM EDTA, room temperature", "conditions": "protein: recombinant; tags: N-terminal NusA fusion, TEV site ENLYFQS; Ni-NTA purified; label: 32P"}, "NusA-HuR [2]": {"target": "T1, NusA-HuR", "assay": "EMSA; EMSA: 50 mM Tris pH 7.5, 50 mM KCl, 37 C, 1 h, 100 nM 32P-RNA; 7% native PAGE in 40 mM Tris-acetate pH 8.0, 1 mM EDTA, room temperature", "conditions": "protein: recombinant; tags: N-terminal NusA fusion, TEV site ENLYFQS; Ni-NTA purified; label: 32P; RNA template with annealed primer"}}, "data": [{"binder": "UCAGAUAUUUAUAUUUUUAUUUUAUUUUUUUCUACCUUGAGGUCUUUUGA (ssRNA)", "note": "[ARE-containing synthetic ssRNA (Fig. 2C)]", "values": [{"measurement": "binding result", "setting": "NusA-HuR [1]", "result": "binds"}]}, {"binder": "ARE-containing template/primer (Fig. 4B) (mixed) RNA: UCAGAUAUUUAUAUUUUUAUUUUAUUUUUUUCUACCUUGAGGUCUUUUGA DNA: CACTAGTCAAAAGACCTC", "values": [{"measurement": "binding result", "setting": "NusA-HuR [2]", "result": "binds"}]}]}
